The target in one assay is T1, 3A6.
T1 construct: also called 3A6 antibody (containing VH4-34 antigen); 3A6 (VH4-34 antigen)
The experiment in a line: ELISA, human IgG1 antigen captured on anti-human IgG Fc.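 Further: humanized antibodies bound to human IgG1 antigen captured at 1 µg/ml on anti-human IgG Fc plates, detected with anti-mouse IgG Fc/HRP, VSTB112 serving as negative control protein.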

Another assay deals with T2, 3A6 mutant FR1.
T2 construct: also called 3A6 FR1; 3A6-FR1 (VH4-34 FR1 mutant)
Described as above.

In assay [1] the target is T3, antibodies containing VH4-34 endogenously expressed by cell line OCI-Ly3.
T3 construct: Whole, on cells; also called VH4-34-expressing cell line OCI-Ly3
The experiment in a line: flow cytometry, EC50 of % parent, OCI-Ly3 cells endogenously expressing VH4-34. A general note: A flow cytometer gives signals particle by particle.
Procedure: (§1) Binding was assessed by FACS. Briefly, cells were assayed in PBS with 0.5% BSA and 2 mM EDTA. Live dead staining was performed with a live dead cell dye for 15 minutes at 4° C. […] Following this, cells were incubated with a secondary PE goat anti-mouse IgG (1:300) for 30 mins at 4° C. and PE readout was measured.

The target in assay [2] is T3, antibodies containing VH4-34 …. The assay is described as follows: flow cytometry, EC50 of MFI, OCI-Ly3 cells endogenously expressing VH4-34.
Procedure: as §1

As usually defined, the EC50 is the midpoint of the concentration-response curve.

T1 sequence (VH, as listed by the source, chain 1 of 2): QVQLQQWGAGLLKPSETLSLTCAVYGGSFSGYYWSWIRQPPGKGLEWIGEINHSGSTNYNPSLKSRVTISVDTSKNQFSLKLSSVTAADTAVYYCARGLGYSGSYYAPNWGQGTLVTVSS
T1 sequence (VL, as listed by the source, chain 2 of 2): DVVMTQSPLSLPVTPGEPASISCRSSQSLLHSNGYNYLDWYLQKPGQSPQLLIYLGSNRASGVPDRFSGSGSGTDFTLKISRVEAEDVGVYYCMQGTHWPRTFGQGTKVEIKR
T2 sequence (VH, as listed by the source, chain 1 of 2): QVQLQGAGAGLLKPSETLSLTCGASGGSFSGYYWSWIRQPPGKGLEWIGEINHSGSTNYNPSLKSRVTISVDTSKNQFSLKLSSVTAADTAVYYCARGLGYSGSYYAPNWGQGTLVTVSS
T2 sequence (VL, as listed by the source, chain 2 of 2): as the sequence (VL, as listed by the source, chain 2 of 2) above
Procedure for 3A6 mutant FR1: The binding affinity of each humanized antibody for 3A6 antibody (containing VH4-34 antigen), 3A6-FR1 (VH4-34 FR1 mutant) and VSTB112 (negative control protein) was evaluated.
Plates were coated with 1 ug/ml of anti-human IgG Fc overnight at 4° C. Plates were washed thrice with PBS/0.05% Tween (PBST) before blocking with 5% BSA for 1 h at room temp (RT). Plates were then washed again before addition of 1 μg/ml of 3A6 (VH4-34 antigen), 3A6-FR1 (VH4-34 FR1 mutant) or VSTB112 (negative control protein) human IgG1 proteins. Plates were washed thrice. […] After washing the plates, anti-mouse IgG Fc/HRP diluted 1:5000 in 1% BSA was added and incubated for 1 h at RT. Plates were washed before detection using 1-step ELISA substrate.

B1: D011-7016-LD2 H4/L4 IgG2a (antibody, V domains shown)
VH: QVQLQESGPGLVKPSETLSLTCTVSWDAITSGYWNWVRQPPGNKLEYMGYISYSGSAHYNPSLKSRITISRDTSKNQYSLKLSSVTAADTAVYYCASYSFAYWGQGTLVTVSS
VL: EIVLTQSPDFQSVTPKEKVTITCRASQSIDNQLHWYQQKPDQSPKLLIKYASQSISGVPSRFSGSGSGTDFTLTISSLEAEDAATYFCQQSYGWPYTFGGGTKLEIKR
As for B1, the EC50 with 3A6 came out at 0.0365 nM. The binding result in the assay with 3A6 mutant FR1 is on record as “no binding (tested: 1 µg/ml (highest concentration))”.

B2: D011-7016-LD2 H5/L3 IgG2a (antibody, V domains shown)
VH: QVQLQESGPGLVKPSQTLSLTCTVSWDAITSGYWNWVRQHPGNKLEYMGYISYSGSAHYNPSLKSRITISRDTSKNQYSLKLSSVTAADTAVYYCASYSFAYWGQGTLVTVSS
VL: DIQMTQSPSSLSASVGDRVTITCRASQSIDNQLHWYQQKPGKSPNLLINYASQSISGVPSRFSGSGSGTDFTLTISSLQPEDFATYFCQQSYGWPYTFGGGTKVEIKR
Turning to B2, in the assay with 3A6, it took 0.282 nM to reach a half-maximal effect (EC50). In addition, the binding result with 3A6 mutant FR1 is listed as “no binding (tested: 1 µg/ml (highest concentration))”.

B3: D011-7016-LD2 H1/L2 IgG2a (antibody, V domains shown)
VH: QVQLQESGPGLVKPSQTLSLTCTVSWDAITSGYWNWVRQHPGKGLEYMGYISYSGSAHYNPSLKSRITISRDTSKNQYSLKLSSVTAADTATYYCASYSFAYWGQGTLVTVSS
VL: DIVMTQSPPSLSVTPGESASISCRASQSIDNQLHWYLQKPGQSPQLLINYASQSISGVTDRFSGSGSGTDFTLKISRVEAEDVGMYFCQQSYGWPYTFGGGTKVEIKR
In the case of B3, it took 0.0427 nM to reach a half-maximal effect in the assay with 3A6 (EC50). The binding result in the assay with 3A6 mutant FR1 is given as “no binding (tested: 1 µg/ml (highest concentration))”.

B4: D011-7016-LD2 H1/L3 IgG2a (antibody, V domains shown)
VH: QVQLQESGPGLVKPSQTLSLTCTVSWDAITSGYWNWVRQHPGKGLEYMGYISYSGSAHYNPSLKSRITISRDTSKNQYSLKLSSVTAADTATYYCASYSFAYWGQGTLVTVSS
VL: DIQMTQSPSSLSASVGDRVTITCRASQSIDNQLHWYQQKPGKSPNLLINYASQSISGVPSRFSGSGSGTDFTLTISSLQPEDFATYFCQQSYGWPYTFGGGTKVEIKR
Molecule B4 returned an EC50 with 3A6 of 0.0469 nM. Also, the binding result with 3A6 mutant FR1 was “no binding (tested: 1 µg/ml (highest concentration))”.

B5: D011-7016-LD2 H3/L4 IgG2a (antibody, V domains shown)
VH: QVQLQESGPGLVKPSETLSLTCSVSWDAITSGYWNWVRQPPGNKLEYMGYISYSGSAHYNPSLKSRITISRDTSKNQYSLTLTSMTAADTALYYCASYSFAYWGQGTLVTVSS
VL: EIVLTQSPDFQSVTPKEKVTITCRASQSIDNQLHWYQQKPDQSPKLLIKYASQSISGVPSRFSGSGSGTDFTLTISSLEAEDAATYFCQQSYGWPYTFGGGTKLEIKR
In the assay with 3A6, B5 displayed an EC50 of 0.0627 nM. In the assay with 3A6 mutant FR1, the binding result is “no binding (tested: 1 µg/ml (highest concentration))”.

B6: D011-7016-LD2 H3/L2 IgG2a (antibody, V domains shown)
VH: QVQLQESGPGLVKPSETLSLTCSVSWDAITSGYWNWVRQPPGNKLEYMGYISYSGSAHYNPSLKSRITISRDTSKNQYSLTLTSMTAADTALYYCASYSFAYWGQGTLVTVSS
VL: DIVMTQSPPSLSVTPGESASISCRASQSIDNQLHWYLQKPGQSPQLLINYASQSISGVTDRFSGSGSGTDFTLKISRVEAEDVGMYFCQQSYGWPYTFGGGTKVEIKR
B6: the EC50 with 3A6 was 0.053 nM. The binding result in the assay with 3A6 mutant FR1 was “no binding (tested: 1 µg/ml (highest concentration))”.

B7: D011-7016-LD2 H4/L1 IgG2a (antibody, V domains shown)
VH: QVQLQESGPGLVKPSETLSLTCTVSWDAITSGYWNWVRQPPGNKLEYMGYISYSGSAHYNPSLKSRITISRDTSKNQYSLKLSSVTAADTAVYYCASYSFAYWGQGTLVTVSS
VL: DIVMTQSPPSLSVTPGEPASLSCRASQSIDNQLHWYLQKPGQSPQLLINYASQSISGVTDRFSGSGSGTDFTLKISRVEAEDVGVYFCQQSYGWPYTFGGGTKVEIKR
For B7, in the assay with 3A6, the EC50 amounted to 0.0521 nM. For the same molecule, the binding result with 3A6 mutant FR1 is “no binding (tested: 1 µg/ml (highest concentration))”.

B8: D011-7016-LD2 H4/L3 IgG2a (antibody, V domains shown)
VH: QVQLQESGPGLVKPSETLSLTCTVSWDAITSGYWNWVRQPPGNKLEYMGYISYSGSAHYNPSLKSRITISRDTSKNQYSLKLSSVTAADTAVYYCASYSFAYWGQGTLVTVSS
VL: DIQMTQSPSSLSASVGDRVTITCRASQSIDNQLHWYQQKPGKSPNLLINYASQSISGVPSRFSGSGSGTDFTLTISSLQPEDFATYFCQQSYGWPYTFGGGTKVEIKR
In turn, B8 came in with an EC50 with 3A6 of 0.011 nM. For the same molecule, the binding result with 3A6 mutant FR1 was “no binding (tested: 1 µg/ml (highest concentration))”.

B9: D011-7016-LD2 H3/L1 IgG2a (antibody, V domains shown)
VH: QVQLQESGPGLVKPSETLSLTCSVSWDAITSGYWNWVRQPPGNKLEYMGYISYSGSAHYNPSLKSRITISRDTSKNQYSLTLTSMTAADTALYYCASYSFAYWGQGTLVTVSS
VL: DIVMTQSPPSLSVTPGEPASLSCRASQSIDNQLHWYLQKPGQSPQLLINYASQSISGVTDRFSGSGSGTDFTLKISRVEAEDVGVYFCQQSYGWPYTFGGGTKVEIKR
On to B9, for which the values for the EC50 (with 3A6; in assay [1]; in assay [2]) were 0.0398 nM, 0.00375 nM and 0.292 nM, respectively. In addition, in the assay with 3A6 mutant FR1, the binding result was “no binding (tested: 1 µg/ml (highest concentration))”.

B10: D011-7016-LD2 H3/L3 IgG2a (antibody, V domains shown)
VH: QVQLQESGPGLVKPSETLSLTCSVSWDAITSGYWNWVRQPPGNKLEYMGYISYSGSAHYNPSLKSRITISRDTSKNQYSLTLTSMTAADTALYYCASYSFAYWGQGTLVTVSS
VL: DIQMTQSPSSLSASVGDRVTITCRASQSIDNQLHWYQQKPGKSPNLLINYASQSISGVPSRFSGSGSGTDFTLTISSLQPEDFATYFCQQSYGWPYTFGGGTKVEIKR
In turn, B10 registered an EC50 with 3A6 of 0.169 nM. The binding result with 3A6 mutant FR1 is on record as “no binding (tested: 1 µg/ml (highest concentration))”.

B11: D011-7016-LD2 H5/L4 IgG2a (antibody, V domains shown)
VH: QVQLQESGPGLVKPSQTLSLTCTVSWDAITSGYWNWVRQHPGNKLEYMGYISYSGSAHYNPSLKSRITISRDTSKNQYSLKLSSVTAADTAVYYCASYSFAYWGQGTLVTVSS
VL: EIVLTQSPDFQSVTPKEKVTITCRASQSIDNQLHWYQQKPDQSPKLLIKYASQSISGVPSRFSGSGSGTDFTLTISSLEAEDAATYFCQQSYGWPYTFGGGTKLEIKR
Take B11: the EC50 stood at 0.0495 nM in the assay with 3A6, 0.00251 nM in assay [1] and 0.282 nM in assay [2]. Moreover, the binding result in the assay with 3A6 mutant FR1 was “no binding (tested: 1 µg/ml (highest concentration))”.

B12: D011-7016-LD2 H1/L4 IgG2a (antibody, V domains shown)
VH: QVQLQESGPGLVKPSQTLSLTCTVSWDAITSGYWNWVRQHPGKGLEYMGYISYSGSAHYNPSLKSRITISRDTSKNQYSLKLSSVTAADTATYYCASYSFAYWGQGTLVTVSS
VL: EIVLTQSPDFQSVTPKEKVTITCRASQSIDNQLHWYQQKPDQSPKLLIKYASQSISGVPSRFSGSGSGTDFTLTISSLEAEDAATYFCQQSYGWPYTFGGGTKLEIKR
For the molecule B12, the EC50 in the assay with 3A6 came out at 0.0234 nM; in assay [1] it was 0.00765 nM; in assay [2], 0.46 nM. Besides, the binding result in the assay with 3A6 mutant FR1 is reported as “no binding (tested: 1 µg/ml (highest concentration))”.

B13: D011-7016-LD2 H1/L1 IgG2a (antibody, V domains shown)
VH: QVQLQESGPGLVKPSQTLSLTCTVSWDAITSGYWNWVRQHPGKGLEYMGYISYSGSAHYNPSLKSRITISRDTSKNQYSLKLSSVTAADTATYYCASYSFAYWGQGTLVTVSS
VL: DIVMTQSPPSLSVTPGEPASLSCRASQSIDNQLHWYLQKPGQSPQLLINYASQSISGVTDRFSGSGSGTDFTLKISRVEAEDVGVYFCQQSYGWPYTFGGGTKVEIKR
Regarding B13, a half-maximal response in the assay with 3A6 (EC50) required 0.0446 nM. Besides, the binding result with 3A6 mutant FR1 is listed as “no binding (tested: 1 µg/ml (highest concentration))”.

Source of the values: patent US20260274993A1 (HUMMINGBIRD BIOSCIENCE PTE, published 2026).
